For this assay, the target named is Triggering receptor expressed on myeloid cell-1 (TREM-1), human (human) (UniProt Q9NP99). Briefly: cell-based or functional assay.

Experimental findings from patent publication US20080247955A1 are described below.

UniProt Q9NP99, sequence (Q9NP99 21-234): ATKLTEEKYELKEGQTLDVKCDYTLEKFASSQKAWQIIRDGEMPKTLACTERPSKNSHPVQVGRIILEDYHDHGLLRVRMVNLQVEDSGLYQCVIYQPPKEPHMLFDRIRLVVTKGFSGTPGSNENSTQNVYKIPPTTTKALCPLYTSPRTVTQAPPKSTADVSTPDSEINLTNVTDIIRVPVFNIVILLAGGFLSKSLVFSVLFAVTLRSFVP

With “anti-hTREM-1 antibody (MAB1278, R&D Systems)”, the CSF2 (GM-CSF) mRNA induction (microarray, human monocytes) is 9.6 fold; the INHBA transcript fold change (microarray, human monocytes), confirmed at protein level by ELISA was 96.7 fold; the M-CSF transcript fold change (microarray, human monocytes), confirmed at protein level by ELISA stood at 22 fold; the SPP1 transcript fold change (microarray, human monocytes, 2 hours, α-TREM-1 against control antibody) turned out to be 28 fold.
